Data from patent US20250145729A1 (DENALI THERAPEUTICS, published 2025).

T1: circularly permuted human TfR apical domain (human)
T1 construct: TfR residues 326-379 stand N-terminal to 194-296, loop 297-325 deleted; also called huTfR Apical Domain
T1 chain: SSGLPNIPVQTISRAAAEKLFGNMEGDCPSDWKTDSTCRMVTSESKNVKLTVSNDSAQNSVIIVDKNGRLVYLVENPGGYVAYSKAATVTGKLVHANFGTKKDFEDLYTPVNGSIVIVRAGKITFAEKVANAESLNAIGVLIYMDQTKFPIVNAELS

T2: circularly permuted cyno TfR apical domain (cynomolgus monkey)
T2 construct: same design as the human construct; also called cyTfR Apical Domain; cynomolgus TfR apical domain
T2 chain: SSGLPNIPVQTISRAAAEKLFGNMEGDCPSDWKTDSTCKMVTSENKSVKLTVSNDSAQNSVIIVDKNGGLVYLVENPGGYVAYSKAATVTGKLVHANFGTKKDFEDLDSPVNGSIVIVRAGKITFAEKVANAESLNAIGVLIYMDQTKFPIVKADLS

T3: human CD98hc (human, UniProt P08195 109-529)
T3 construct: also called huCD98hc; CD98 heavy chain
T3 sequence: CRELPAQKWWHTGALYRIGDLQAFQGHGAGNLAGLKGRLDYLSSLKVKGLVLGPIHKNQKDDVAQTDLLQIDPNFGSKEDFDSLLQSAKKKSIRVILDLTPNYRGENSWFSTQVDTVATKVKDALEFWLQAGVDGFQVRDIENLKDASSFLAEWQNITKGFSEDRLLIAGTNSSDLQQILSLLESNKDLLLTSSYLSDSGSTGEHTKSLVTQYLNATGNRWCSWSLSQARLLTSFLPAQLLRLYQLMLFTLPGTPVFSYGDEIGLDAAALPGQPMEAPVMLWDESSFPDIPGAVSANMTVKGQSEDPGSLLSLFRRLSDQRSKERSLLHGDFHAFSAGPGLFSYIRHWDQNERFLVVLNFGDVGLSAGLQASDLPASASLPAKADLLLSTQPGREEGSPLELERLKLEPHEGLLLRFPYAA


Key:
[1] = molecular target: T1, circularly permuted human TfR apical …; assay: method not named for this table (Biacore elsewhere)
[2] = molecular target: T2, circularly permuted cyno TfR apical …; assay: as above
human CD98hc = molecular target: T3, human CD98hc; assay: SPR (Biacore)
Procedure: Variants that bound with measurable affinity from this round of engineering are shown in Table A12 and the corresponding human binding affinity by surface plasmon resonance (SPR) using a Biacore™ machine are shown in Table 9B. Cell binding of the clones was also tested in HeLa cells for huCD98hc binding and CHO cells as a negative control.

Binder	Kd [1] [µM]	Kd [2] [µM]	Kd (human CD98hc) [µM]	other results
42.2.1.2 mono (Fc fusion, knob+P329G+LALA with TfR site, hole+P329G+LALA without) chain 1: APEAAGGPSVFLFPPKPKDTLMISRTPEVTCVVVDVSHEDPEVKFNWYVDGVEVHNAKTKPREEQYNSTYRVVSVLTVLHQDWLNGKEYKCKVSNKALGAPIEKTISKAKGQPREPQVYTLPPSRDELTKNQVSLWCLVKGFYPSDIAVEWFYDDSKLTNYKTTPPVLDSDGSFFLYSKLTVDKSRWQQGNLFACEVMHEALHNHYTYKLLSLSPGK chain 2: APEAAGGPSVFLFPPKPKDTLMISRTPEVTCVVVDVSHEDPEVKFNWYVDGVEVHNAKTKPREEQYNSTYRVVSVLTVLHQDWLNGKEYKCKVSNKALGAPIEKTISKAKGQPREPQVYTLPPSRDELTKNQVSLSCAVKGFYPSDIAVEWESNGQPENNYKTTPPVLDSDGSFFLVSKLTVDKSRWQQGNVFSCSVMHEALHNHYTQKSLSLSPGK	0.284	7		
42.2.1.20 mono (Fc fusion, knob+P329G+LALA with TfR site, hole+P329G+LALA without) chain 1: APEAAGGPSVFLFPPKPKDTLMISRTPEVTCVVVDVSHEDPEVKFNWYVDGVEVHNAKTKPREEQYNSTYRVVSVLTVLHQDWLNGKEYKCKVSNKALGAPIEKTISKAKGQPREPQVYTLPPSRDELTKNQVSLWCLVKGFYPSDIAVEWFADASKQRNYKTTPPVLDSDGSFFLYSKLTVDKSRWQQGNLFACEVMHEALHNHYTYKLLSLSPGK chain 2: APEAAGGPSVFLFPPKPKDTLMISRTPEVTCVVVDVSHEDPEVKFNWYVDGVEVHNAKTKPREEQYNSTYRVVSVLTVLHQDWLNGKEYKCKVSNKALGAPIEKTISKAKGQPREPQVYTLPPSRDELTKNQVSLSCAVKGFYPSDIAVEWESNGQPENNYKTTPPVLDSDGSFFLVSKLTVDKSRWQQGNVFSCSVMHEALHNHYTQKSLSLSPGK	0.44	7		
42.2.3.1C mono (Fc fusion, knob+P329G+LALA with TfR site, hole+P329G+LALA without) chain 1: APEAAGGPSVFLFPPKPKDTLMISRTPEVTCVVVDVSHEDPEVKFNWYVDGVEVHNAKTKPREEQYNSTYRVVSVLTVLHQDWLNGKEYKCKVSNKALGAPIEKTISKAKGQPREPQVYTLPPSRDELTKNQVSLWCLVKGFYPSDIAVEWFGTNKKETNYKTTPPVLDSDGSFFLYSKLTVDKSRWQQGNLFACEVMHEALHNHYTYKLLSLSPGK chain 2: APEAAGGPSVFLFPPKPKDTLMISRTPEVTCVVVDVSHEDPEVKFNWYVDGVEVHNAKTKPREEQYNSTYRVVSVLTVLHQDWLNGKEYKCKVSNKALGAPIEKTISKAKGQPREPQVYTLPPSRDELTKNQVSLSCAVKGFYPSDIAVEWESNGQPENNYKTTPPVLDSDGSFFLVSKLTVDKSRWQQGNVFSCSVMHEALHNHYTQKSLSLSPGK	1	10		
42.2.3.1H mono (Fc fusion, knob+P329G+LALA with TfR site, hole+P329G+LALA without) chain 1: APEAAGGPSVFLFPPKPKDTLMISRTPEVTCVVVDVSHEDPEVKFNWYVDGVEVHNAKTKPREEQYNSTYRVVSVLTVLHQDWLNGKEYKCKVSNKALGAPIEKTISKAKGQPREPQVYTLPPSRDELTKNQVSLWCLVKGFYPSDIAVEWFYGNAKETNYKTTPPVLDSDGSFFLYSKLTVDKSRWQQGNLFACEVMHEALHNHYTYKLLSLSPGK chain 2: APEAAGGPSVFLFPPKPKDTLMISRTPEVTCVVVDVSHEDPEVKFNWYVDGVEVHNAKTKPREEQYNSTYRVVSVLTVLHQDWLNGKEYKCKVSNKALGAPIEKTISKAKGQPREPQVYTLPPSRDELTKNQVSLSCAVKGFYPSDIAVEWESNGQPENNYKTTPPVLDSDGSFFLVSKLTVDKSRWQQGNVFSCSVMHEALHNHYTQKSLSLSPGK	0.22	2		
42.2.3.3 mono (Fc fusion, knob+P329G+LALA with TfR site, hole+P329G+LALA without) chain 1: APEAAGGPSVFLFPPKPKDTLMISRTPEVTCVVVDVSHEDPEVKFNWYVDGVEVHNAKTKPREEQYNSTYRVVSVLTVLHQDWLNGKEYKCKVSNKALGAPIEKTISKAKGQPREPQVYTLPPSRDELTKNQVSLWCLVKGFYPSDIAVEWFTDNYKETNYKTTPPVLDSDGSFFLYSKLTVDKSRWQQGNLFACEVMHEALHNHYTYKLLSLSPGK chain 2: APEAAGGPSVFLFPPKPKDTLMISRTPEVTCVVVDVSHEDPEVKFNWYVDGVEVHNAKTKPREEQYNSTYRVVSVLTVLHQDWLNGKEYKCKVSNKALGAPIEKTISKAKGQPREPQVYTLPPSRDELTKNQVSLSCAVKGFYPSDIAVEWESNGQPENNYKTTPPVLDSDGSFFLVSKLTVDKSRWQQGNVFSCSVMHEALHNHYTQKSLSLSPGK	0.36	8		
LLB2-10-8.d24 (Fc fusion, Fc part only) APELLGGPSVFLFPPKPKDTLMISRTPEVTCVVVDVSHEDPEVKFNWYVDGVEVHNAKTKPREEQYNSTYRVVSVLTVLHQDWLNGKEYKCKVSNKALPAPIEKTISKAKGQPREPQVYTLPPSRDELTKNQVSLTCLVKGFYPSDIAVLWNSRYVLENNYKTTPPVLDSDGSFFLYSKLTVDKSRWQQGNVFACNVYHEALHNHYTFKNLALSPGK			2.6	
LLB2-10-8.d32 (Fc fusion, Fc part only) APELLGGPSVFLFPPKPKDTLMISRTPEVTCVVVDVSHEDPEVKFNWYVDGVEVHNAKTKPREEQYNSTYRVVSVLTVLHQDWLNGKEYKCKVSNKALPAPIEKTISKAKGQPREPQVYTLPPSRDELTKNQVSLTCLVKGFYPSDIAVLWSSQFELENNYKTTPPVLDSDGSFFLYSKLTVDKSRWQQGNVFACNVYHEALHNHYTFKNLALSPGK			3.1	
LLB2-10-8.d26 (Fc fusion, Fc part only) APELLGGPSVFLFPPKPKDTLMISRTPEVTCVVVDVSHEDPEVKFNWYVDGVEVHNAKTKPREEQYNSTYRVVSVLTVLHQDWLNGKEYKCKVSNKALPAPIEKTISKAKGQPREPQVYTLPPSRDELTKNQVSLTCLVKGFYPSDIAVLWNSRFVPENNYKTTPPVLDSDGSFFLYSKLTVDKSRWQQGNVFACNVYHEALHNHYTFKNLALSPGK				binding result (human CD98hc): no binding
LLB2-10-8.d30 (Fc fusion, Fc part only) APELLGGPSVFLFPPKPKDTLMISRTPEVTCVVVDVSHEDPEVKFNWYVDGVEVHNAKTKPREEQYNSTYRVVSVLTVLHQDWLNGKEYKCKVSNKALPAPIEKTISKAKGQPREPQVYTLPPSRDELTKNQVSLTCLVKGFYPSDIAVLWNSQFELENNYKTTPPVLDSDGSFFLYSKLTVDKSRWQQGNVFACNVYHEALHNHYTFKNLALSPGK			1	
LLB2-10-8.d31 (Fc fusion, Fc part only) APELLGGPSVFLFPPKPKDTLMISRTPEVTCVVVDVSHEDPEVKFNWYVDGVEVHNAKTKPREEQYNSTYRVVSVLTVLHQDWLNGKEYKCKVSNKALPAPIEKTISKAKGQPREPQVYTLPPSRDELTKNQVSLTCLVKGFYPSDIAVLWNSQYQLENNYKTTPPVLDSDGSFFLYSKLTVDKSRWQQGNVFACNVYHEALHNHYTFKNLALSPGK			0.46	
LLB2-10-8.d25 (Fc fusion, Fc part only) APELLGGPSVFLFPPKPKDTLMISRTPEVTCVVVDVSHEDPEVKFNWYVDGVEVHNAKTKPREEQYNSTYRVVSVLTVLHQDWLNGKEYKCKVSNKALPAPIEKTISKAKGQPREPQVYTLPPSRDELTKNQVSLTCLVKGFYPSDIAVLWNSRFQLENNYKTTPPVLDSDGSFFLYSKLTVDKSRWQQGNVFACNVYHEALHNHYTFKNLALSPGK			0.67	
LLB2-10-8.d27 (Fc fusion, Fc part only) APELLGGPSVFLFPPKPKDTLMISRTPEVTCVVVDVSHEDPEVKFNWYVDGVEVHNAKTKPREEQYNSTYRVVSVLTVLHQDWLNGKEYKCKVSNKALPAPIEKTISKAKGQPREPQVYTLPPSRDELTKNQVSLTCLVKGFYPSDIAVLWNSRFQPENNYKTTPPVLDSDGSFFLYSKLTVDKSRWQQGNVFACNVYHEALHNHYTFKNLALSPGK				binding result (human CD98hc): no binding
LLB2-10-8.d28 (Fc fusion, Fc part only) APELLGGPSVFLFPPKPKDTLMISRTPEVTCVVVDVSHEDPEVKFNWYVDGVEVHNAKTKPREEQYNSTYRVVSVLTVLHQDWLNGKEYKCKVSNKALPAPIEKTISKAKGQPREPQVYTLPPSRDELTKNQVSLTCLVKGFYPSDIAVLWSSRYVLENNYKTTPPVLDSDGSFFLYSKLTVDKSRWQQGNVFACNVYHEALHNHYTFKNLALSPGK			4.2	
LLB2-10-8.d29 (Fc fusion, Fc part only) APELLGGPSVFLFPPKPKDTLMISRTPEVTCVVVDVSHEDPEVKFNWYVDGVEVHNAKTKPREEQYNSTYRVVSVLTVLHQDWLNGKEYKCKVSNKALPAPIEKTISKAKGQPREPQVYTLPPSRDELTKNQVSLTCLVKGFYPSDIAVLWSSRFQLENNYKTTPPVLDSDGSFFLYSKLTVDKSRWQQGNVFACNVYHEALHNHYTFKNLALSPGK			1.3	
